Assay [1] concerns the target T1, human CD20 (human, UniProt P11836 1-297).
T1 sequence (looked up): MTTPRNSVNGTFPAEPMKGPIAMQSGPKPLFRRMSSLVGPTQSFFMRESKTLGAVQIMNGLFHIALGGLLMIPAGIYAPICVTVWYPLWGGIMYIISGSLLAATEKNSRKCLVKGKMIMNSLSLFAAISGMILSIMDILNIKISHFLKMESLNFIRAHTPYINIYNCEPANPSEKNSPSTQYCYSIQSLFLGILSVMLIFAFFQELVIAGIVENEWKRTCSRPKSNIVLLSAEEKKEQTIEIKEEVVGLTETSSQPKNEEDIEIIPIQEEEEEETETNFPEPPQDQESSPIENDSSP
The experiment in a line: cell-based or functional assay.

The target of assay [2] is T1, human CD20. Description: cell-based or functional assay. This is another data set of the same source.
The target in assay [3] is T1, human CD20. The experiment in a line: flow cytometry on human CD20 positive Ramos cells.
In assay [4] the target is human HER2 (human, UniProt P04626 23-1255). The experiment in a line: cell-based or functional assay.

Broadly, the EC50 is the concentration at which the effect is half-maximal. A high value points to lower potency in that assay.

B1: T017000016 (bispecific antibody)
chain: EVQLVESGGGLVQPGGSLRLSCTFSGGTFSSYTMGWFRQAPGKEREFVAEVRWGGVTTYSNSLKDRFSISEDSVKNAVYLQMNSLKPEDTAVYYCAAVRQMYMTVVPDYWGQGTLVTVSSGGGGSGGGGSGGGGSGGGGSGGGGSGGGGSGGGGSEVQLVESGGGSVQAGGSLRLSCAASGRTFSTNPMGWFRQVPGKERELIAAVRWADGNTFYADSVKGRFTISRDNAKKTVYLQMNSLKSEDTATYYCAAGRPWSAYHSPAEYVHWGQGTLVTVSSGAADYKDHDGDYKDHDIDYKDDDDKGAAHHHHHH
notes: Bispecific Nanobody construct with tags, expressed in Pichia; also called 20CD019C07-35GS-T0170033G03-FLAG3-HIS6; CD20xCD3 (cluster C)
For the molecule B1, in assay [1], the “% lysis (% dead cells at 500 nM Nanobody minus no Nanobody control), Ramos killing assay, E:T 10:1” value is 4% and the “Average IC50 (M), flow cytometry based primary human T cell mediated Ramos killing assay, E:T 10:1” value (“Average IC50 (M) … E:T 10:1” for short) was determined as 9.2e-09 M. For the same molecule, in assay [2], the “Average IC50 (M), xCELLigence based human T cell mediated CHO-K1 CD20 killing assay, E:T 30:1, 44 h” value (from here on “Average IC50 (M) … 44 h”) amounted to 6.81e-12 M. Also, the EC50 in assay [3] was 1.5 nM.

B2: T017000100 (bispecific antibody)
chain: EVQLVESGGGPVQAGGSLRLSCAASGRTYRGYSMGWFRQAPGKEREFVAAIVWSGGNTYYEDSVKGRFTISRDNAKNTMYLQMTSLKPEDSATYYCAAKIRPYIFKIAGQYDYWGQGTLVTVSSGGGGSGGGGSGGGGSGGGGSGGGGSGGGGSGGGGSEVQLVESGGGLVQAGGSLRLSCAASGITFSINTMGWYRQAPGKQRELVALISSIGDTYYADSVKGRFTISRDNAKNTVYLQMNSLKPEDTAVYYCKRFRTAAQGTDYWGQGTLVTVSSGAADYKDHDGDYKDHDIDYKDDDDKGAAHHHHHH
With B2, in assay [4], the “IC50 (M), xCELLigence based cytotoxicity (readout 18 h), MCF-7, E/T 15:1” value was determined as 6.9e-11 M and the “IC50 (M), xCELLigence based cytotoxicity (readout 18 h), SKBR3, E/T 15:1” value was 9.5e-12 M.

B3: T017000101 (bispecific antibody)
chain: EVQLVESGGGLVQAGGSLRLSCAASGITFSINTMGWYRQAPGKQRELVALISSIGDTYYADSVKGRFTISRDNAKNTVYLQMNSLKPEDTAVYYCKRFRTAAQGTDYWGQGTLVTVSSGGGGSGGGGSGGGGSGGGGSGGGGSGGGGSGGGGSEVQLVESGGGPVQAGGSLRLSCAASGRTYRGYSMGWFRQAPGKEREFVAAIVWSGGNTYYEDSVKGRFTISRDNAKNTMYLQMTSLKPEDSATYYCAAKIRPYIFKIAGQYDYWGQGTLVTVSSGAADYKDHDGDYKDHDIDYKDDDDKGAAHHHHHH
Turning to B3, in assay [4], the “IC50 (M), xCELLigence based cytotoxicity (readout 18 h), MCF-7, E/T 15:1” value is 1.1e-10 M and the “IC50 (M), xCELLigence based cytotoxicity (readout 18 h), SKBR3, E/T 15:1” value came out at 2.6e-11 M.

B4: T017000040 (bispecific antibody)
chain: EVQLVESGGGLVQPGGSLRLSCAASGDIYKSFDMGWYRQAPGKQRDLVAVIGSRGNNRGRTNYADSVKGRFTISRDGTGNTVYLLMNKLRPEDTAIYYCNTAPLVAGRPWGRGTLVTVSSGGGGSGGGGSGGGGSGGGGSGGGGSGGGGSGGGGSEVQLVESGGGLVQPGGSLRLSCTFSGGTFSSYTMGWFRQAPGKEREFVAEVRWGGVTTYSNSLKDRFSISEDSVKNAVYLQMNSLKPEDTAVYYCAAVRQMYMTVVPDYWGQGTLVTVSSGAADYKDHDGDYKDHDIDYKDDDDKGAAHHHHHH
notes: Bispecific Nanobody construct with tags, expressed in Pichia; also called T0170060E11-35GS-20CD019C07-FLAG3-HIS6; CD3xCD20 (cluster B)
On to B4, for which, in assay [1], the “% lysis (% dead cells at 500 nM Nanobody minus no Nanobody control), Ramos killing assay, E:T 10:1” value came out at 29% and the “Average IC50 (M) … E:T 10:1” value came out at 6.8e-09 M. In assay [2], the “Average IC50 (M) … 44 h” value is 4.89e-10 M. Also, the EC50 in assay [3] came out at 32 nM.

B5: T017000057 (bispecific antibody)
chain: EVQLVESGGGLVQPGGSLRLSCTFSGGTFSSYTMGWFRQAPGKEREFVAEVRWGGVTTYSNSLKDRFSISEDSVKNAVYLQMNSLKPEDTAVYYCAAVRQMYMTVVPDYWGQGTLVTVSSGGGGSGGGGSGGGGSGGGGSGGGGSGGGGSGGGGSEVQLVESGGGLVQAGGSLRLSCAASGRSFNMNPLGWFRQSPGKEREFVAAHRWSDGNTYYVDSVKGRFTISRDNAKNTVYLQMNSLKSEDTAVYYCAAGRPWSAFRSPGEYVYWGQGTLVTVSSGAADYKDHDGDYKDHDIDYKDDDDKGAAHHHHHH
For B5, in assay [1], the “% lysis (% dead cells at 500 nM Nanobody minus no Nanobody control), Ramos killing assay, E:T 10:1” value came to 3% and the “Average IC50 (M) … E:T 10:1” value is 1.4e-09 M.

B6: T017000061 (bispecific antibody)
chain: EVQLVESGGGLVQPGGSLRLSCTFSGGTFSSYTMGWFRQAPGKEREFVAEVRWGGVTTYSNSLKDRFSISEDSVKNAVYLQMNSLKPEDTAVYYCAAVRQMYMTVVPDYWGQGTLVTVSSGGGGSGGGGSGGGGSGGGGSGGGGSGGGGSGGGGSEVQLVESGGGLVQGGGSLSLSCAASGRTFSSYAMAWFRQPPGKEREFVASISWSGENTNYRNSVKGRFTISRDNAKNTVYLQMNSLKPEDTAVYYCAAKIAKTYPDNWYWTKSNNYNYWGQGTLVTVSSGAADYKDHDGDYKDHDIDYKDDDDKGAAHHHHHH
As to B6, in assay [1], the “% lysis (% dead cells at 500 nM Nanobody minus no Nanobody control), Ramos killing assay, E:T 10:1” value turned out to be 13% and the “Average IC50 (M) … E:T 10:1” value is 2.9e-08 M.

B7: T017000056 (bispecific antibody)
chain: EVQLVESGGGLVQPGGSLRLSCTFSGGTFSSYTMGWFRQAPGKEREFVAEVRWGGVTTYSNSLKDRFSISEDSVKNAVYLQMNSLKPEDTAVYYCAAVRQMYMTVVPDYWGQGTLVTVSSGGGGSGGGGSGGGGSGGGGSGGGGSGGGGSGGGGSEVQLVESGGGAVQPGGSLRLSCAASGIRISRNMMGWFRQAPGKQRDLVARITPGGDTYYVDSVKGRFSISKDNAKNTVYLQMNSLKPEDTAVYYCNSYSTLGSWGQGTLVTVSSGAADYKDHDGDYKDHDIDYKDDDDKGAAHHHHHH
On to B7, for which, in assay [1], the “% lysis (% dead cells at 500 nM Nanobody minus no Nanobody control), Ramos killing assay, E:T 10:1” value was determined as 4% and the “Average IC50 (M) … E:T 10:1” value amounted to 1.5e-08 M.

B8: T017000045 (bispecific antibody)
chain: EVQLVESGGGSVQAGGSLRLSCAASGRTFSTNPMGWFRQVPGKERELIAAVRWADGNTFYADSVKGRFTISRDNAKKTVYLQMNSLKSEDTATYYCAAGRPWSAYHSPAEYVHWGQGTLVTVSSGGGGSGGGGSGGGGSGGGGSGGGGSGGGGSGGGGSEVQLVESGGGLVQPGGSLRLSCTFSGGTFSSYTMGWFRQAPGKEREFVAEVRWGGVTTYSNSLKDRFSISEDSVKNAVYLQMNSLKPEDTAVYYCAAVRQMYMTVVPDYWGQGTLVTVSSGAADYKDHDGDYKDHDIDYKDDDDKGAAHHHHHH
On to B8, for which the “% lysis (% dead cells at 500 nM Nanobody minus no Nanobody control), Ramos killing assay, E:T 10:1” value in assay [1] was found to be 0%.

B9: T017000021 (bispecific antibody)
chain: EVQLVESGGGSVQAGGSLRLSCAASGRTFSTNPMGWFRQVPGKERELIAAVRWADGNTFYADSVKGRFTISRDNAKKTVYLQMNSLKSEDTATYYCAAGRPWSAYHSPAEYVHWGQGTLVTVSSGGGGSGGGGSGGGGSGGGGSGGGGSGGGGSGGGGSEVQLVESGGGLVQPGGSLRLSCTFSGGTFSSYTMGWFRQAPGKEREFVAEVRWGGVTTYSNSLKDRFSISEDSVKNAVYLQMNSLKPEDTAVYYCAAVRQMYMTVVPDYWGQGTLVTVSSGAADYKDHDGDYKDHDIDYKDDDDKGAAHHHHHH
notes: Bispecific Nanobody construct with tags, expressed in Pichia; also called T0170033G03-35GS-20CD019C07-FLAG3-HIS6; CD3xCD20 (cluster C)
Regarding B9, the “Average IC50 (M) … 44 h” value in assay [2] was 1.52e-10 M. In assay [3], the EC50 was 4.7 nM.

(Values after patent US20250388672A1 (Ablynx, published 2025).)
